Test results from patent US20180171001A1.

Legend:
Assay in all cases: cell-based or functional assay
[1] = molecular target: Env of HIV-1 strain ZM53M.PB12 (HIV-1)
[2] = molecular target: Env of HIV-1 strain X1254_c3 (HIV-1)
[3] = molecular target: Env of HIV-1 strain 3016.v5.c45 (HIV-1)
[4] = molecular target: Env of HIV-1 strain ZM109F.PB4 (HIV-1)
[5] = molecular target: Env of HIV-1 strain Du172.17 (HIV-1)
[6] = molecular target: Env of HIV-1 strain 3415.v1.c1 (HIV-1)
[7] = molecular target: Env of HIV-1 strain 231965.c1 (HIV-1)
[8] = molecular target: Env of HIV-1 strain REJO4541.67 (HIV-1)
[9] = molecular target: Env of HIV-1 strain YU2.DG (HIV-1)
[10] = molecular target: Env of HIV-1 strain R1166.c1 (HIV-1)
[11] = molecular target: Env of HIV-1 strain PVO.4 (HIV-1)
[12] = molecular target: Env of HIV-1 strain 250-4 (HIV-1)
[13] = molecular target: Env of HIV-1 strain 3365.v2.c20 (HIV-1)
[14] = molecular target: Env of HIV-1 strain 251-18 (HIV-1)
[15] = molecular target: Env of HIV-1 strain H086.8 (HIV-1)
Env of MuLV = molecular target: Env of MuLV

| Binder | neutralization IC50 [1] [µg/mL] | neutralization IC50 [2] [µg/mL] | neutralization IC50 [3] [µg/mL] | neutralization IC50 [4] [µg/mL] | neutralization IC50 [5] [µg/mL] | neutralization IC50 [6] [µg/mL] | neutralization IC50 [7] [µg/mL] | neutralization IC50 [8] [µg/mL] | neutralization IC50 [9] [µg/mL] | neutralization IC50 [10] [µg/mL] | neutralization IC50 [11] [µg/mL] | neutralization IC50 [12] [µg/mL] | neutralization IC50 [13] [µg/mL] | neutralization IC50 [14] [µg/mL] | neutralization IC50 [15] [µg/mL] | neutralization IC50 (Env of MuLV) [µg/mL] |
| --- | --- | --- | --- | --- | --- | --- | --- | --- | --- | --- | --- | --- | --- | --- | --- | --- |
| γ59κ3 (antibody, V domains shown) VH: QIHLVQSGTEVKKPGSSVTVSCKAYGVNTFGLYAVNWVRQAPGQGLEYIGQIWRWKSSASHHFRGRVLISAVDLTGSSPPISSLEIKNVTSDDTAVYFCTTTSTYDEWSDLHHDGVMAFSSWGQGTLISVSA VL: DIQMTQSPSTLSASIGDTVRISCRASQSITGNWLAWYHQRPGKAPRLLIYRGSRLLGGVPSRFSGSAAGTDFTLTIANLQAEDFGTFYCQQYDTYPGTFGQGTKVEVKR | > 15 | 3.39 | > 15 | > 15 | > 15 | > 15 | > 15 | 8.54 | 8.97 | 24.2 | > 15 | > 15 | > 15 | > 15 | > 15 | > 30 |
| γ3κ3 (antibody, V domains shown) VH: QIHLVQSGTEVKKPGSSVTVSCKAYGVNTFGLYAVSWVRQAPGQRLEYIGQIRRWKSSASHHFRGRVTVSAVDPTGSSPPISSLEIRDLTTDDTAVYFCTTTSTSDYWSGLHNERGTAFSSWGQGTLISVSA VL: DIQMTQSPSTLSASIGDTVRISCRASQSITGNWLAWYHQRPGKAPRLLIYRGSRLLGGVPSRFSGSAAGTDFTLTIANLQAEDFGTFYCQQYDTYPGTFGQGTKVEVKR | > 15 | 1.82 | 0.347 | > 15 | > 15 | > 15 | 0.727 | 0.26 | 0.42 | 2.2 | 0.17 | > 15 | > 15 | > 15 | 3.31 | > 30 |
| γ3κ5 (antibody, V domains shown) VH: QIHLVQSGTEVKKPGSSVTVSCKAYGVNTFGLYAVSWVRQAPGQRLEYIGQIRRWKSSASHHFRGRVTVSAVDPTGSSPPISSLEIRDLTTDDTAVYFCTTTSTSDYWSGLHNERGTAFSSWGQGTLISVSA VL: DIQMTQSPSTLSASTGDTVRISCRASQSITGNWVAWYQQRPGKAPRLLIYRGAALLGGVPSRFRGSAAGTDFTLTIGNLQAEDFGTFYCQQYDTYPGTFGQGTKVEVKR | > 15 | 1.72 | 0.314 | > 15 | 3.73 | > 15 | 0.697 | 0.097 | 0.2 | 2.07 | 0.081 | > 15 | > 15 | 0.721 | 0.434 | > 15 |
| 8ANC3484 (antibody, V domains shown) VH: QIHLVQSGTEVKKPGSSVTVSCKAYGVNTFGLYAVNWVRQAPGQSLEYIGQIWRWKSSASHHFRGRVLISAVDLTGSSPPISSLEIKNLTSDDTAVYFCTTTSTYDRWSGLHHDGVMAFSSWGQGTLISVSA VL: DIQMTQSPSTLSASIGDTVRISCRASQSITGNWVAWYQQRPGKAPRLLIYRGAALLGGVPSRFRGSAAGTDFTLTIGNLQAEDFGTFYCQQYDTYPGTFGQGTKVEVKR | 11.6 | 2.19 | 0.131 | > 30 | 4.01 | 0.589 | 0.294 | 0.117 | 0.461 | 1.03 | 0.077 | > 30 | > 30 | 0.391 | 0.394 | > 30 |
| γ22κ5 (antibody, V domains shown) VH: QIHLVQSGTEVKKPGSSVTVSCKAYGVNTFGLYAVNWVRQAPGQSLEYIGQIWRWKSSASHHFRGRVLISAVDLTGPSPPISSLEIKNLTSDDTAVYFCTTTSTYDKWSGLHHDGVMAFSSWGQGTLISVSA VL: DIQMTQSPSTLSASTGDTVRISCRASQSITGNWVAWYQQRPGKAPRLLIYRGAALLGGVPSRFRGSAAGTDFTLTIGNLQAEDFGTFYCQQYDTYPGTFGQGTKVEVKR | > 15 | 1.52 | 0.103 | > 15 | > 15 | > 15 | 0.69 | 0.795 | 0.569 | 2.4 | 0.352 | > 15 | > 15 | 1.7 | > 15 | > 30 |
| 8ANC3430 (antibody, V domains shown) VH: QIHLVQSGTEVKKPGSSVTVSCKAYGVNTFGLYAVNWVRQAPGQSLEYIGQIWRWKSSASHHFRGRVIISAVDLTGSSPPISSLEIKNLTSDDTAVYFCTTTSTSDYWSGLHHDGVMAFSSWGQGTLISVSA VL: DIQMTQSPSTLSASVGDTVRISCRASQSITGGWLAWYHQRPGKAPRLLIYRGSRLLGGVPSRFSGSAAGTDFTLTIANLQAEDFGTFYCQQYDTYPGTFGQGTKVEVKR | > 23 | 4.28 | 0.271 | > 23 | > 23 | > 23 | 1.19 | 0.198 | 0.545 | 3.64 | 0.206 | > 23 | > 23 | 6.17 | > 23 | > 23 |
| 8ANC3044 (antibody, V domains shown) VH: QIHLVQSGTEVRKPGSSVTVSCKAYGVNTFGLYAVNWVRQAPGQSLEYIGQIWRWKSSASHHFRGRVLISAVDLTGSSPPISSLEIKNLTSDDTAVYFCTTTSTYDKWSGLHHDGVMAFSSWGQGTLISVSA VL: DIQMTQSPSTLSASIGDTVRISCRASQSITGNWVAWYQQRPGKAPRLLIYRGAALLGGVPSRFSGSAAGTDFTLTIGNLQTEDFGTFYCQQYDTYPGTFGQGTKVEVKR | 15.2 | 4.54 | 0.242 | > 30 | > 30 | 7.56 | 1.33 | 0.278 | 0.747 | 2.38 | 0.26 | > 30 | > 30 | 0.858 | 3.83 | > 30 |
| γ23κ5 (antibody, V domains shown) VH: QIHLVQSGTEVKKPGSSVTVSCKAYGVNTFGLYAVNWVRQAPGQSLEYIGQIWRWKSSASHHFRGRVIISAVDLTGSSPPISSLEIKNLTSDDTAVYFCTTTSTSDYWSGLHHDGVMAFSSWGQGTLISVSA VL: DIQMTQSPSTLSASTGDTVRISCRASQSITGNWVAWYQQRPGKAPRLLIYRGAALLGGVPSRFRGSAAGTDFTLTIGNLQAEDFGTFYCQQYDTYPGTFGQGTKVEVKR | 5.88 | 0.919 | 0.091 | > 15 | 1.81 | 1.48 | 0.291 | 0.091 | 0.136 | 1.07 | 0.043 | > 15 | > 15 | 0.176 | 0.474 | > 30 |
| 8ANC3630 (antibody, V domains shown) VH: QIHLVQSGTEVKKPGSSVTVSCKAYGVNTFGLYAVNWVRQAPGQSLEYIGQIWRWKSSASHHFRGRVLISAVDLTGSSPPISSLEIKNLTSDDTAVYFCTTTSTYDRWSGLHHDGVMAFSSWGQGTLISVSA VL: DIQMTQSPSTLSASIGDTVRISCRASQSITGGWLAWYHQRPGKAPRLLIYRGSRLLGGVPSRFSGSAAGTDFTLTIANLQAEDFGTFYCQQYDTYPGTFGQGTKVEVKR | > 30 | 2.38 | 0.136 | > 30 | > 30 | 28 | 0.375 | 2.65 | 0.468 | 1.45 | 0.102 | > 30 | > 30 | 0.73 | 0.3 | > 30 |
